assay: soluble on expression in E. coli; label from the status in PepcDB or PDB records

Sequence | soluble on expression in E. coli
MIMSEMITRQQVTSGETIHVRTDPTACIGSHPNCRMFIDSLTIAGEKLDKNIVAIDGGEDVTKADSATAAASVIRMSITPGSINPTISITLGVLIKSNVRTKIEEKVSSILQASATDMKIKLGNSNKKQEYKTDEAWGIMIDLSNLELYPISAKAFSISIEPTELMGVSKDGMRYHIISIDGLTTSQGSLPVCCAASTDKGVAKIGYIAAA | soluble
GPGSMSHSALAYAACPMCTRVVHMGQMLHHILSTHKEQDPAYWMRLCNARLALYERVTGAPLEGTETMRDACLAQATAAVAEAADSEAMVPGGLSLSTPLSTHDALRPFLPTVSETGTYTCNWCALRSVAFSSRDAFLLHVAKDHPKLDFDVVESLVPQPLTVSSRAARNEGTGTPAPRAPAAESDVTVSDSWTRQQRGGAGCVGAASNSHAAEGFDVAYPVRRMPGVRTVQDTNVVTVKPEVHQLGTSVGRVGRNAFDPAPISTGGRRSRAAVSASSTASATAVANDLHFDKDCFPCELCFRVFVSELNLLQHLESKHTNPTTLASVSDASVERAAPPGTASASSTAAASPSSVEVFVVCDRCTDRKKVFRSSSALFSHIRFRHPAEDAAYETERMIEEQRQSRVFQCPHCRYRHPDMTRLDTHMRDAHGVVGCAGEKTIRGGRVVSGTAQPHGSAELKTAQPSLFSALPPVTVRTRFWCSVCEKGFANASALYAHTESKHTTIASLYPCPACKREFRDVPSLESHVQLCHKNLSLKDMGLQSSVECPDCLRHFLNYESLHDHAVRHHGKSAIAPVRSFVTPVSASTAGEGVGVAAAVPVPGTSTDASGSTTSPLAVAAPPKPRKVTRRKKEPSTAATES | not soluble
MITKRQLSILNAIVEDYVDFGQPIGSKTLIHRHHLDVSPATIRNEMKQLEEMHFIEKTHTSSGRVPSESGIRYYVNRLLEQTSHQSQNKIQRLNQLLIENHYDSSTALTNFAHELSMKSQYATLVVRPNHKQDVINDIHLIRANNHLIILVMVFSSGHVENIHFVSHAQLNNINLNKIANFLTEHFSFNRKVLTQNIESYFSQKEELLLANEVVEMINLQIGNQSNSIYMGGKVKLIDALNESNVSSIQPILQYIESNKITELLEDISTSQINVRIGKEIDDSLSDISIVTSQYHFDESLKGQIAVIGPTAMHYQNVIQLLNRIW | not soluble
MAEVMSQTLEDAMRRNPHLRKYVEEFRRKYGKIPEFHVQLSRDMKEIPYPNIIYPVGDPIFIHIYGDPNTEKQYIVIEPRIETKEEEEKYKLIRDRMLELAPNKDIPEEQEEFERFLDSLFEEAVL | not soluble
MHHHHHHGSMGMMSRYEELRKELPAQPKVWLITGVAGFIGSNLLETLLKLDQKVVGLDNFATGHQRNLDEVRSLVSEKQWSNFKFIQGDIRNLDDCNNACAGVDYVLHQAALGSVPRSINDPITSNATNIDGFLNMLIAARDAKVQSFTYAASSSTYGDHPGLPKVEDTIGKPLSPYAVTKYVNELYADVFSRCYGFSTIGLRYFNVFGRRQDPNGAYAAVIPKWTSSMIQGDDVYINGDGETSRDFCYIENTVQANLLAATAGLDARNQVYNIAVGGRTSLNQLFFALRDGLAENGVSYHREPVYRDFREGDVRHSLADISKAAKLLGYAPKYDVSAGVALAMPWYIMFLK | soluble
MINDIKILGVGGSPRKNGNTDVLLDSFLKGAESAGVETKKVLLRDYSIEPCIGCERCRKTGTCTRFHDGMSLLYPEIEAAKGLTLGSPTYNYNVTALMKAFIDRLYPYYNFTNVRPRRYSSKLAGQGRKAIVFSVCEQLEIEEMGFTLGALGMPLEALGYEIVEKFPVTGYFDRGAVSRDEELLRKTFEAGKKMAEALHLEHHHHHH | not soluble
MAAKNAFYAQSGGVTAVINASAAGVIEAARKQSGKIGRIYAGRNGIIGALTEDLIDTGQESDAAISALRYTPSGAFGSCRYKLKSLEQNRREYERLIEVFKAHDIGYFFYNGGGDSADTCLKVSQLSGTLGYPIQAIHVPKTVDNDLPITDCCPGFGSVAKYIAVSTLEASFDVASMSATSTKVFVLEVMGRHAGWIAAAGGLASSPEREIPVVILFPEISFDKQKFLAKVDSCVKKFGYCSVVVSEGVKGDDGKFLSDQGVRDAFGHAQLGGVAPVVASMVKEGLGLKYHWGVADYLQRAARHIASKTDVEQAYAMGQAAVEFAVQGHNSVMPTIERISARPYQWKVGMAQLSQVANVEKMMPENFITEDGFGITDLCREYLAPLIEGEDYPPYKDGLPDYVRLKNVAVPKKLSGFTL | soluble
